Bridge positions count the residues as written; N and C are the ends. Peptide text beside a SMILES is read from it. * marks the point of attachment. NH(mPEG24) = COCCOCCOCCOCCOCCOCCOCCOCCOCCOCCOCCOCCOCCOCCOCCOCCOCCOCCOCCOCCOCCOCCOCCOCCN*
Assays:
GLP-1 receptor [1] = molecular target: GLP-1 receptor (UniProt P32301); test: radioligand displacement, RINm5F cell membranes, [125I]GLP-1 (or exendin) tracer
GLP-1 receptor [2] = molecular target: GLP-1 receptor (UniProt P32301); test: cell-based or functional assay
GLP-1 receptor [3] = molecular target: T1, GLP-1 receptor (Rattus norvegicus, UniProt P32301); test: GLP-1 receptor binding displacement assay; conditions: text of Examples 6, 7, 12
T1 construct: endogenous in cells; host or cells: RINm5F cell membranes
T1 sequence (P32301 22-463): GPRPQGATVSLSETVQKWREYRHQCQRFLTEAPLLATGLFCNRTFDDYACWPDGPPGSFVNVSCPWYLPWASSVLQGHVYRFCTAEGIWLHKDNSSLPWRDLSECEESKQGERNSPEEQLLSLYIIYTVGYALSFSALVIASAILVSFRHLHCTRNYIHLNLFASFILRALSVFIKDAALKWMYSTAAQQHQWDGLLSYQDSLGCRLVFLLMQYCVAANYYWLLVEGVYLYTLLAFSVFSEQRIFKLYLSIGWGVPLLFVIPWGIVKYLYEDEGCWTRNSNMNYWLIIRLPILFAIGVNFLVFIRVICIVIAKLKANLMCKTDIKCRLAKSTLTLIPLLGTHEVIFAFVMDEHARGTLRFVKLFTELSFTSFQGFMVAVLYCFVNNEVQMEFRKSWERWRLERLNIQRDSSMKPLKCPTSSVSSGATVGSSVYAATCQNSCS
Description: GLP-1 receptor binding and functional assays: GLP-1 receptor binding activity and affinity may be measured in any number of known methods. […] Reaction mixtures are filtered through glass filter pads presoaked with 0.3% PEI solution and rinsed with ice-cold phosphate buffered saline. Bound counts are determined using a scintillation counter. Binding affinities can be calculated using GraphPad Prism® software (GraphPad Software, Inc., San Diego, Calif.).

GLP-1 receptor [4] = molecular target: T2, GLP-1 receptor (UniProt P32301 22-463, limits assumed); test: cell-based or functional assay
T2 sequence (looked up): T1 sequence (P32301 22-463)

GLP-1 receptor, P32301 = molecular target: T3, GLP-1 receptor, P32301; test: GLP-1 binding assay (radioligand displacement), as the filing names it
T3 chain: T1 sequence (P32301 22-463)

Exendin-4 (peptide)
IC50 (GLP-1 receptor [1]): 333 pM | GLP-1 Function ED50 (GLP-1 receptor [2]): 3 pM

CC[C@H](C)[C@H](NC(=O)[C@@H]1CCCN1C(=O)CNC(=O)[C@H](Cc1ccccc1)NC(=O)[C@H](CC(N)=O)NC(=O)[C@H](CC(N)=O)NC(=O)[C@H](CO)NC(=O)[C@H](CO)NC(=O)[C@H](Cc1c[nH]cn1)NC(=O)[C@@H](NC(=O)[C@H](CC(C)C)NC(=O)[C@H](Cc1ccccc1)NC(=O)[C@H](CC(N)=O)NC(=O)[C@H](C)NC(=O)[C@H](CC(C)C)NC(=O)[C@H](CCCNC(=N)N)NC(=O)[C@H](CCC(=O)NCCOCCOCCOCCOCCOCCOCCOCCOCCOCCOCCOCCOCCOCCOCCOCCOCCOCCOCCOCCOCCOCCOCCOCCOC)NC(=O)[C@@H](NC(=O)[C@H](C)NC(=O)[C@@H]1CSSC[C@H](NC(=O)[C@@H](N)CCCCN)C(=O)N[C@@H](CC(N)=O)C(=O)N[C@@H]([C@@H](C)O)C(=O)N[C@@H](C)C(=O)N[C@@H]([C@@H](C)O)C(=O)N1)[C@@H](C)O)C(C)C)C(=O)N[C@@H](CC(C)C)C(=O)N1CCC[C@H]1C(=O)N1CCC[C@H]1C(=O)N[C@H](C(=O)N[C@@H](CC(N)=O)C(=O)N[C@H](C(=O)NCC(=O)N[C@@H](CO)C(=O)N[C@@H](CC(N)=O)C(=O)N[C@H](C(=O)N[C@@H](Cc1ccc(O)cc1)C(N)=O)[C@@H](C)O)C(C)C)[C@@H](C)O [Example 12] (H-KCNTATCATE(NH(mPEG24))RLANFLVHSSNNFGPILPPTNVGSNTY-NH2; disulfide 2-7; N-terminus and C-terminus assumed)
IC50 (GLP-1 receptor [3]): 80000 pM

B1: [des-^1H, ^2G(imidazoacetyl), ^13N, ^14L]-Exendin-4-^40Q biotin cadaverine amide adduct attached at ^40Q (MW 4564.46) (peptide)
peptide: GEGTFTSDLSKNLEEEAVRLFIEWLKNGGPSSGAPPPSQ
modifications: imidazoacetyl on Gly 2 in place of His 1; biotin cadaverine amide on the side chain of Gln 40
EC50 in the GLP-1 functional assay (GLP-1 receptor [4]): 4 pM

KCNTATCATQRLANFLVHSSNNFGPILPPTNVGSNTY (modifications not checked) [Pramlintide pegylated with m-dPEG24 amine at the glutamine at position 10]
IC50 (GLP-1 receptor, P32301): 80000 pM

From US20150111246A1, “SITE-SPECIFIC ENZYMATIC MODIFICATION OF EXENDINS AND ANALOGS THEREOF” (priority 2012, published 2015)
